Experiment: soluble fraction after stress (log2 fold change); higher = more stays soluble; pooled small domains, quantitative proteomics
Settings: stress: pH 4
How it was run: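 Custom libraries of small protein domains were pooled and exposed to pH 4. High-throughput quantitative proteomics then measured the log2 fold change in the amount of each domain still soluble, with higher values meaning more stayed soluble. This soluble-fraction fold change stands for aggregation propensity.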

| Sequence | soluble fraction (log2) |
| --- | --- |
| HMQEKLELIIPVSSIGKRADVAIQDLLSSYSRAKIQEWIKSGFILLESKKISPKDIFMGGERVFIDIQQDE | -1.38 |
| HMQELVPGKVFEGTVTEMKNGQVTLGLSDGKTISARMEQGVSLAKGQPMLFEVKSNTGEQIAIRPVVL | 0.105 |
| HMQENKVLEGKVLEKKKKKVFVDLSPFGVGVIRGVNYLEAKNELKDIEEGDNIKVRVLEIDNENGFIELAL | -1.13 |
| HMQERQREGFVQQLRGKYSGQVVMRLFPELQGKALGEFMRKFEAQWEDHEAVLAAMEAHEIESRLKVFK | -1.2 |
| HMQETALANFETNEGVQKVKQYVQENVPSLRGSNIVGVWTSYTPEGLTNYRTRFLTQDGQFVEVNLAYQ | -0.885 |
| HMQETIDVAALRVGMFVHLDLGWLAHPFPLSSFRISSEDQISTIRALGLKRVRWSSQHSELG | -1.27 |
| HMQETKDEGAQVLLNKINALVAAVQGQIITPEEAAIKLATDGDLDLDVDARVAAIEEFNKKLSEAQNN | -0.682 |
| HMQEVILEKIQLTYLSADKLSKMAEQFSIPVKMYWVDENPMMLMVMGNESDIATFKKVLTQIDIPENKS | -1.04 |
| HMQFHQDNYALEFIRDLQPVDGAIILSRFKQFDLVELEKAKKIKFSDEHMAWTLYDYDIKKIN | -1.82 |
| HMQFLKPQDVLFLLKLVVLKGPASIFPAVPESLGLSKAEVHNSAKRVRGARLLPHDSWNPLRKNLLEFL | 0.0341 |
| HMQFQVHEIKGKEYYIHVVEKGNTLYAISRMYSVPIETLKEENPRLNTTELTIGDRLLIPLDEVKRKNIE | -0.316 |
| HMQFYSGLEARLMDPNTPEVFDDPISLMAFLQQKNISRVELEDNLLLPYLKEMAGQPIPKAELLEIIRK | -2.19 |
| HMQGDHELSQRILSYLSEQGGSSPLTDKASPEEIYRIFRVSKKKYKQALGNLYKSKSIIILADKIQLL | 0.195 |
| HMQGEDEILKIHEALEELAQIDARLVRVVEMRYFVGLSNQEIADSLGVTTRTVERDWEKARTFLFNALHP | -0.717 |
| HMQGISGIERSLLDALAFEPAGLDALQARTGLDTPTLQALLMGLELQGHVARLPGSLFQRLVR | -1.35 |
| HMQGVTVPDLTRVSLEEAVATISSLGLRYEISDRRSNAAFPANYVLDQAPGANTIVKPNRKVYLTVNAA | 0.381 |
| HMQGWREWDYSADLYINARVGGKIEPTENSPISRVYELDEPVSVVAFTSTRYFKLSSGDYIFAEYLSAQKV | -0.18 |
| HMQGYELKMYVTPDTKYSVAVYDAKNEMVSYTMGFSAKAPFGQEGEVLETVKLEFDKLAVGNYELKYWI | -0.0121 |
| HMQHYQFEVDEASSKKRLDVFLSENLPEISRSRLKKLIDEKRVTVNEMSRPAGYKVRVKEKIEFHIPPL | -0.317 |
| HMQIAEAESLGQRLLQQSINNIVGRDEAITEERLNRVLSQYSLTGRDELMAQIGLGNRNSSLVAKAMYDI | -0.35 |
| HMQIKEVDYGTFISMTEDGEIGRVEIQQQENTILFTDEDETAVYKTAMVEDDQLTQRLYDAGISFYGEE | -0.784 |
| HMQILVEGVEANQRLDLFLRARLTEFSRSRIQGLVKNGNVLVNGNIARQAYLVQVGDKIELDVPEPVA | 0.112 |
| HMQIMVVDEADRMLDMGFIPDIERIFQLTPFTRQTLFFSATMAPEIERITDTFLHSPERIEVAR | -1.14 |
| HMQISDDGFILKIINEVVAENPKSISDYISGKEAAVGFLVGQIMKKTRGKANPKLVNEMLITELAKLKN | -0.393 |
| HMQISDESSIAKIADEVISEFPSQVSEFRSGKEKVLQFLIGQVMKKTKGKANPQITAKILREKLS | 0.17 |

| Sequence | soluble fraction (log2) |
| --- | --- |
| HMQISDSASVKTVVAEAIAANPKAVADFMNGKDTATRYLVGQVMKITKGQAKPELVNQLVLESLAELKEK | 0.226 |
| HMQISDSGELEKIVLQVIEENPKPAEQVRSGNEKAIGALVGGVMKATQGRADGGEVNRLLRQHLGL | 0.23 |
| HMQISDVSLIAKVIDDVIDNNVKSVSDYLEGNLNVLRFLVGQVMKETKGKANPQKATELLQEKLESLNN | -0.386 |
| HMQISLDTKLINLEFSVRANNVFRENQIFTLRDLTSHSKEDLMLMTNFGKTTLYEVNKKLEEHQLKLSQ | -1.53 |
| HMQISNEEELEKIIENVIESNPEKVKAYQSGKSGLIGFFMGQVMKESGGQANPNLVNQILKGKL | 0.109 |
| HMQIYSQEIYDAQKVLKELGLYTSDLDGLNGPGTKRALRNFQSKSGLNADGVLGPLTKSALDKGEESYITV | -0.0943 |
| HMQKADFDYGDYVDLGLAMGRQSRQLREAVGIKLGIGYANSKRFYQRLQTFGISLAELKQAVEEAENDQQN | 0.149 |
| HMQKEMDIVLQINGKMRSNLKVSSTANDDEIIKTAIESDAYKKFSLGLRIQKTIIVPNRLINIVLEK | ≥ 0.43 |
| HMQKIYTIARGDTLSHIVAGTLKQQGIAYTTGELYRLVNVVAQYNDILNPNRIYTGHQLDLTPLYSED | -0.434 |
| HMQKLLGPFEDFVKIKLDKYPDTKAAQMHDWLKEHYPDFPEVTPKTVYNFVMYVRQRHNIPIPD | -0.276 |
| HMQKTVLAASVYERMKERIMDQYYPPGERLNIDALAIDLAVSPTPIREALARLAAERLITFEAYKGYRVSP | -0.637 |
| HMQLEPLVTSVIPVNFAKASDISGTIKGKEVGLLSERGNITAENRTNVLIVKDIRKSVDEINAMVKRLD | 0.151 |
| HMQLFKFKNAMMELAKNKNITLDTAEKAIGLEAGFTELVARGVKELALSDVIKISKYFNTTMDSVLD | -0.995 |
| HMQLPFTPREHEITQLLSRGLSNRQIAEALSLSVRTVEGHIYQASTKLGISSRSELAVLVGQFA | -0.967 |
| HMQLSQLLQPFDINAFKGHPLYTEENVKMFNDYTNRVKEWTKGTPYEQYWVTKEGQPTMLAWDSFKK | -1.07 |
| HMQLTQEAIENLFKITTAKKFREELEKLVVTDSEKKAFAYFTVYHPKLKELPFAILKSVENYTGISI | -0.319 |
| HMQLVPGIGRLSARELEVFTLIGRGLGTSEIGKKLGVSAYTVQTHRNHIKEKLNLPNAAAITYWAIQWAHG | -0.338 |
| HMQMEDTDALLQVAKEVVAENQDTVEAYLGGREKAFASLIGAAMKKTRGKANPKVIRQLILDLIQ | -0.432 |
| HMQMEISQRIKLERQTLKWTQEELADKIFVSKRTISNWETGRTVPDIESVLRLAKVFHVSLEDLLL | -0.021 |
| HMQMEYEKAIAYILDKIKSGELSIGSKLPAERVIADTLHIGRNSTREALSILHGMGMVDRVHGSGNYISEH | -0.111 |
| HMQMLQDPFLNALRKEHVPVSIYLVNGIKLQGQVESFDQYVVLLRNTSVTQMVYKHAISTIVPARAVSL | -0.412 |
| HMQMRKENKILVTDIGEIDEVKVIFDDDNKPYLYSYNGEDEFYRPDETYKFFDNKEQAEEYVREN | -0.891 |
| HMQMSPREKMIYSFIESHPGTKSGEIAEKLNVPLPTVKRILSEMVSGNFIAKHGSGIGTNYSTEK | ≥ 0.43 |
| HMQMSWDAVKARLQDIVNNEDKTKPFNDEMLASKLKEQGIEIARRTVVKYRQQLGIPAARLRKK | -0.17 |
| HMQNAETPDVAAEFRTWTSADGQFQVIAKLVKLDGESVHLERQDDGRQIAVPLGKLSSEDRLFLRGVRP | -0.0636 |

| Sequence | soluble fraction (log2) |
| --- | --- |
| HMQNEQIAFSKFLQEVDSGRVVQVEIQGNNIKGILSDGSKFYTYSPNYPELVGKLSEKGVNIVASPVE | 0.0117 |
| HMQNFLSITSKEKIDIGNFQLISFKFENNLYDYVISGNKSELLIFQEKTIENNNENIEKITSNF | -0.847 |
| HMQNLETVEEIKELALNYLDKYQPSKKSLQVYLFRKAIDAQSNSVEKSEILKKIETVLTDLEEQGILNDAL | -0.139 |
| HMQNMVYVATKDIPAGGVIDQDSVSKTAISTSIDTSLYITDDDLGKIAVVNISQGQSVFSNMVGT | -0.585 |
| HMQNNITISKEIELRTGPDDTYPTLKKVTAGDNVEMLSKSDTWYEIKTNDSFVGWVPGWSIL | -0.656 |
| HMQNSYSVEDLALKAGLSVDTIRYYQGLDLIAPPQKNGRRAIYGDEHLSRLDEIKKLALEGFSLRQISLLK | -1.02 |
| HMQNYNLTQQEKKVLQLLVSGKSYKMIAAELNVAFDTVKSHITNIYSKLHVHSGTEAVSVAIRDKI | 0.199 |
| HMQPDDELVRLLLIKIFNDKQLKVNPAVINYLLRRIDRSFESINNFVKKIDEFSLEKGRKITVNLVSGFF | -1.43 |
| HMQPFTELTPREREILGHLAEGQSNKVIARHLDISDGTVKLHVKAILRKLGVHSRVEAAVMAVEHGIR | 0.4 |
| HMQPIEIQDRITKAFERSAALEAKNINVEVDGHTVKLTGTVHSLTEKEEARKAAFFAPGVTKVENHLIVDY | -0.0498 |
| HMQPMIQIHTLANHAPVALHIKRNTQRNIIIRARDASSLNLSIPKWFSPAQLQNWLRDNEATLIRILQQAP | -0.256 |
| HMQPPKIISTVEPYREVVREYLKQGVEMTAIWQRLRENYQYTGSYSSVRRFVAQLEPRQPEA | -0.135 |
| HMQPQLFRVIADDGLNIRSGPGPEYPPVAPMLRKGTQVELLQAGDRWSKVEVVGSTDVEGWVNQRYLQAV | 0.0927 |
| HMQPSQTLSATVEFPDRLDRFLALAFPEVSRARFQRLIAEGHVSVEGVPATEIRHKLKAGQRVEAVIPPA | 0.197 |
| HMQPTVEGLMKALETMTFNERTALALHYGLTGRQPMTFMAIGRYLGISDGRAEALVNSAIRKLR | 0.0497 |
| HMQQGVEQLPVTEVGGRLMHYYEVQPKETLYSLSHKLGVGQEYIEQHNPSVRGGLRAFMTLYFPAA | -0.12 |
| HMQQIAVDLSEFKPRLMRDMSSMLAGLYTHDLDLSSLDFSKVANFTFMFRGAIITGTLKMPKI | 0.109 |
| HMQQLDDDTVAYVADNGIAVKSKNGKELSVDTSGLSYDIIMDMFRNLPRNGDFFSSKYWSDNIQKAQAR | -1.34 |
| HMQQLIEFSVTKGHPWINKKIMDLNLPENQLILTIQREGHVVSAEGKTIILENDRITISTDDR | -1.43 |
| HMQQPVVVQQNQTVRVVTGGPGFQVANEGRALNNGLAGQVVQVRLGNGQIISGIARAGGIVEIL | 0.22 |
| HMQQSQLDDIKSVVGGDEGYNKLREWTQANVPDETLKAFDKILDTQDPTMIKVAVEGFAAQMRQAE | -0.508 |
| HMQQTAEDWKNKGDSLTAQSEYVEAIAAYDEAIRLDPNYAPAWSNKGNALKNLGEYYKAIQAYDEAIRL | -1 |
| HMQQYLDAYDKALAFGIAMNKLPSYENLTLDDKEDVDKLKEIYDGMSNYEKTFVAKDFTDKLDRYVKRIE | 0.144 |
| HMQRADYLILYYIKMQAEQHPDSKVYLADLAAVMGLKVTELSKAVEKLQDNGFVAWKTDREAGRTYVELS | -0.89 |
| HMQRIFIDNHDRILYYSNPAGYIAGKEAVVDTMFQTQELERFLQKQSLSIRWEDGVYDRLLLGQ | -0.725 |

Source: the domain aggregation screens of Martell et al. (2025)
